Measured values as given in patent US20240016900.

Target: Human type I collagen, P02452
Sequence (P02452 162-1218, chain 1 of 2): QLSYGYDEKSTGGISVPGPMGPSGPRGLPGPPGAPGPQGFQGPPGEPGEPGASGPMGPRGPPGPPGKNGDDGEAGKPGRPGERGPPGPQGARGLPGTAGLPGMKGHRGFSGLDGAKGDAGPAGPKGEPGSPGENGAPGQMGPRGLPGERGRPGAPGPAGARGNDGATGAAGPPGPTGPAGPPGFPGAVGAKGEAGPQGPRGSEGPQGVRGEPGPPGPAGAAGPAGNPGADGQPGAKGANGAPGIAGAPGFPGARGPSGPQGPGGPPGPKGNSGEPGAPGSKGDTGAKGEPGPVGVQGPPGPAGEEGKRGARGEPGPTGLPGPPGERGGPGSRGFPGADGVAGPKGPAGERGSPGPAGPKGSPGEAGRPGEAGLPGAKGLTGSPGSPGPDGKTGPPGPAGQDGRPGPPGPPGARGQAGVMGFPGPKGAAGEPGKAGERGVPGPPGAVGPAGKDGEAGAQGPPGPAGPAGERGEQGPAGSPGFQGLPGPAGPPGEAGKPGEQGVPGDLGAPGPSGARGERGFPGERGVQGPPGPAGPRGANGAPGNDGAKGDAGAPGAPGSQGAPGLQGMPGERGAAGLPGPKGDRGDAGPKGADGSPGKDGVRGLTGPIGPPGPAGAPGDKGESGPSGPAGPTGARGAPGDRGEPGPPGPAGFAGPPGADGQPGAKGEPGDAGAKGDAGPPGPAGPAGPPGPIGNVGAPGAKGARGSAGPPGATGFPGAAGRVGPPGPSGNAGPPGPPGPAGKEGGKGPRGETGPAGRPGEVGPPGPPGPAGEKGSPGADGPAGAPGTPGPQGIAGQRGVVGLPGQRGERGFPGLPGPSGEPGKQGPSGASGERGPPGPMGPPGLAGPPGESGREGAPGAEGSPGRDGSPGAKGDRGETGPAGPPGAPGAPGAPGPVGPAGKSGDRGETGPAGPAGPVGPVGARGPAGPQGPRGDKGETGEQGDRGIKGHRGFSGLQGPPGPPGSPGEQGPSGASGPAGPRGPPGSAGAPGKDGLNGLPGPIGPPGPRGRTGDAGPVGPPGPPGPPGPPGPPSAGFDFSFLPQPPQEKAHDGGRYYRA
Sequence (chain, as listed by the source, chain 2 of 2): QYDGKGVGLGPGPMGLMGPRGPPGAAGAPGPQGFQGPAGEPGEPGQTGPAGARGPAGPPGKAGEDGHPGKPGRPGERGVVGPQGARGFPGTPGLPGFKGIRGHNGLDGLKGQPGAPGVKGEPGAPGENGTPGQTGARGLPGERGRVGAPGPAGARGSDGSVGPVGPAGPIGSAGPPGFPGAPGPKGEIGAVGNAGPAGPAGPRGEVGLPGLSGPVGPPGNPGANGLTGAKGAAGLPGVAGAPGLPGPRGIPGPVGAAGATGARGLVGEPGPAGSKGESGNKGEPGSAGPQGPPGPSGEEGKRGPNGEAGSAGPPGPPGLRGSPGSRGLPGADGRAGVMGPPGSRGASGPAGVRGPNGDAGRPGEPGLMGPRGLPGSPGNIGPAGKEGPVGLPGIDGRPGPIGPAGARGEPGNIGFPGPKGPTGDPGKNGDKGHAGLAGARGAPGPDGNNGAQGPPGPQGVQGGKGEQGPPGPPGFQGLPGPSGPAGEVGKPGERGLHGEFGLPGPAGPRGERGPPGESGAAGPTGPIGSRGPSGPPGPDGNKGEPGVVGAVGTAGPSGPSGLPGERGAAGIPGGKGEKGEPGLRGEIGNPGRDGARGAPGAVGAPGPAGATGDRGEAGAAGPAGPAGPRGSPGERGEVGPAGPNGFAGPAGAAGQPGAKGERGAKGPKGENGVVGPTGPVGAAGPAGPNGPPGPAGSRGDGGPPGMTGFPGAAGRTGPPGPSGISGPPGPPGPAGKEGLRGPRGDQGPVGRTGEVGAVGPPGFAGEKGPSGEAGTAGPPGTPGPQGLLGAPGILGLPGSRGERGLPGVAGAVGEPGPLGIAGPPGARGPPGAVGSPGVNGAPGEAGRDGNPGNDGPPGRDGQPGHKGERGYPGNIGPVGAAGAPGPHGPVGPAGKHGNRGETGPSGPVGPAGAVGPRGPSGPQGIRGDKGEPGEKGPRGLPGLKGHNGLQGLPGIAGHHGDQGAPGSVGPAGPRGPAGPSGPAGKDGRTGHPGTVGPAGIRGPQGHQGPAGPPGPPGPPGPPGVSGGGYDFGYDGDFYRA

B1: MMP1 (matrix metalloproteinase 1) (protein)
chain: FVLTEGNPRWEQTHLTYRIENYTPDLPRADVDHAIEKAFQLWSNVTPLTFTKVSEGQADIMISFVRGDHRDNSPFDGPGGNLAHAFQPGPGIGGDAHFDEDERWTNNFREYNLHRVAAHELGHSLGLSHSTDIGALMYPSYTFSGDVQLAQDDIDGIQAIYGRSQNPVQPIGPQTPKACDSKLTFDAITTIRGEVMFFKDRFYMRTNPFYPEVELNFISVFWPQLPNGLEAAYEFADRDEVRFFKGNKYWAVQGQNVLHGYPKDIYSSFGFPRTVKHIDAALSEENTGKTYFFVANKYWRYDEYKRSMDPGYPKMIAHDFPGIGHKVDAVFMKDGFFYFFHGTRQYKFDPKTKRILTLQKANSWFNCRKN
B1 was tested, and the “collagen fiber, fibril and network structure on a substrate, by atomic force microscopy” value was “MMP-treated samples, however, showed a substantial amount of disorganized collagen and little remaining fiber/fibril formation” and the “collagen fiber, fibril and network structure on a substrate, by scanning electron microscopy” value was “MMP treatment of the substrate resulted in a readily observable amount of disruption of the collagen fibers, fibrils and network”.
